Here are results for two molecules from PMC11662939, “CRISPR-AsCas12f1 couples out-of-protospacer DNA unwinding with exonuclease activity in the sequential target cleavage”.

In data set [1] the target is T1, AsCas12f1 (Acidibacillus sulfuroxidans, UniProt A0A2U3D0N8 1-422).
T1 sequence: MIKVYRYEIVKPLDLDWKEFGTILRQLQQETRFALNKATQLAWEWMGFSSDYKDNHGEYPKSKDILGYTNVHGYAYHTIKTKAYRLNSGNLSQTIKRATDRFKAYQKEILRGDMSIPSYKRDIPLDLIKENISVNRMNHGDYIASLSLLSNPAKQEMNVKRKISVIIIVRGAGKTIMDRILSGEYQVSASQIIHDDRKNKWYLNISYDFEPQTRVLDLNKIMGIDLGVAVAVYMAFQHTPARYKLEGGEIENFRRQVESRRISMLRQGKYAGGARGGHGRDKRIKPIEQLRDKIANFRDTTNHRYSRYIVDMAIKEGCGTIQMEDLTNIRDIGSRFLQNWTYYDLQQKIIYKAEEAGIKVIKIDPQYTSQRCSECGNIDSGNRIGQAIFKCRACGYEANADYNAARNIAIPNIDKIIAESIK
Description: smFRET; crRNA-tracrRNA; binding then cleavage, E ~0.5; Assay buffers not in the material; duplexes annealed in 20 mM Tris-HCl pH 8.0, 50 mM NaCl; smFRET with 1-10 mM Mg2+. To be noted: protein: recombinant; tags: N-terminal His6-SUMO, removed by HRV3C; chain copies: 2; label: iCy3dT (+34) and 3' biotin on NTS; 3' Cy5 on crRNA; strands: TS/NTS/crRNA/tracrRNA; DNA blunt; crRNA 3' 20 nt pairs with TS.

Data set [2] deals with T1, AsCas12f1. Description: smFRET; partially matched guide/target (16-20mm); low E 0.2-0.4, partial hybridization; Assay buffers not in the material; duplexes annealed in 20 mM Tris-HCl pH 8.0, 50 mM NaCl; smFRET with 1-10 mM Mg2+. To be noted: protein: recombinant; tags: N-terminal His6-SUMO, removed by HRV3C; chain copies: 2; label: iCy3dT and 3' biotin on NTS; 3' Cy5 on crRNA; strands: TS/NTS/crRNA/tracrRNA; DNA blunt; guide mismatched at positions 16-20.

B1: smFRET target DNA with crRNA/tracrRNA (mixed)
DNA 1: ACGCACCAGAAACGAAGGCTACGTCCAGGAGCGCACCATCTTCTTCAAGGAATACAAACAAGCTAAGCACAACGTCGTCT
DNA 2: AGACGACGTTGTGCTTAGCTTGTTTGTATTCCTTGAAGAAGATGGTGCGCTCCTGGACGTAGCCTTCGTTTCTGGTGCGT
RNA 1: GUUUGCGAGCUAGCUUGUGGAGUGUGAACUAUUCCUUGAAGAAGAUGGU
RNA 2: GGAUUCGUCGGUUCAGCGACGAUAAGCCGAGAAGUGCCAAUAAAACUGUUAAGUGGUUUGGUAACGCUCGGUAAGGUAGCCAAAAGGCUGAAACUCCGUGCACAAAGACCGCACGGACGCUUCACAUAUAGCUCAUAAAC
As for B1, the binding result in data set [1] is “binds”.

B2: Protospacer 16-20mm DNA with crRNA/tracrRNA (mixed)
DNA 1: ACGCACCAGAAACGAAGGCTACGTCCAGGAGCGCGTACGCTTCTTCAAGGAATACAAACAAGCTAAGCACAACGTCGTCT
DNA 2: AGACGACGTTGTGCTTAGCTTGTTTGTATTCCTTGAAGAAGCGTACGCGCTCCTGGACGTAGCCTTCGTTTCTGGTGCGT
RNA 1: GUUUGCGAGCUAGCUUGUGGAGUGUGAACUAUUCCUUGAAGAAGAUGGU
RNA 2: GGAUUCGUCGGUUCAGCGACGAUAAGCCGAGAAGUGCCAAUAAAACUGUUAAGUGGUUUGGUAACGCUCGGUAAGGUAGCCAAAAGGCUGAAACUCCGUGCACAAAGACCGCACGGACGCUUCACAUAUAGCUCAUAAAC
For the molecule B2, in data set [2], the binding result is given as “binds”.
